Measurements: the supplement of paper PMC9112550, “Optimization of the antimicrobial peptide Bac7 by deep mutational scanning” (BMC Biology, 2022)

Tested on: Escherichia coli TOP10
Experiment: shrunken log2 fold change of peptide-encoding DNA abundance (4.5 h post-induction vs induction); higher = less antimicrobial activity (less host growth inhibition)
Settings: time post-induction: 4.5 h; library: site-saturation at positions 5, 18, 19, 20
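Note: peptides expressed intracellularly from a pBAD plasmid library in pooled LB shake-flask culture, induced with 0.3% L-arabinose, DNA abundance read by NGS, three biological replicates, DESeq2 with apeglm shrinkage.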

| Sequence | shrunken log2 fold change |
| --- | --- |
| RRIRKRPPRLPRPRPRPGMHPRP | 0.213 |
| RRIRCRPPRLPRPRPRPIFWPRP | 0.235 |
| RRIRARPPRLPRPRPRPGAGPRP | 0.767 |
| RRIRHRPPRLPRPRPRPYDSPRP | -0.0275 |
| RRIRWRPPRLPRPRPRPDIKPRP | -0.323 |
| RRIRKRPPRLPRPRPRPIYDPRP | -0.0349 |
| RRIRFRPPRLPRPRPRPVDCPRP | -0.0595 |
| RRIRNRPPRLPRPRPRPSTQPRP | -0.502 |
| RRIRARPPRLPRPRPRPWHKPRP | 0.0323 |
| RRIRPRPPRLPRPRPRPMPKPRP | 0.409 |
| RRIRDRPPRLPRPRPRPQACPRP | 0.303 |
| RRIRWRPPRLPRPRPRPIVEPRP | 0.127 |
| RRIRPRPPRLPRPRPRPFHSPRP | -0.153 |
| RRIRARPPRLPRPRPRPNAIPRP | 0.201 |
| RRIRWRPPRLPRPRPRPVSCPRP | 0.0517 |
| RRIRSRPPRLPRPRPRPSDFPRP | -0.536 |
| RRIRPRPPRLPRPRPRPDCMPRP | 0.053 |
| RRIRDRPPRLPRPRPRPGGIPRP | 0.129 |
| RRIRVRPPRLPRPRPRPHAWPRP | 0.0267 |
| RRIRCRPPRLPRPRPRPSNVPRP | -0.608 |
| RRIRCRPPRLPRPRPRPFSHPRP | -0.608 |
| RRIRRRPPRLPRPRPRPTWRPRP | 0.667 |
| RRIRVRPPRLPRPRPRPPNNPRP | -0.233 |
| RRIRIRPPRLPRPRPRPINTPRP | -0.954 |
| RRIRDRPPRLPRPRPRPDHMPRP | -0.0107 |

| Sequence | shrunken log2 fold change |
| --- | --- |
| RRIRYRPPRLPRPRPRPWRTPRP | -0.298 |
| RRIRCRPPRLPRPRPRPCCAPRP | 0.242 |
| RRIRDRPPRLPRPRPRPDYEPRP | -0.0367 |
| RRIRLRPPRLPRPRPRPSNHPRP | -1.15 |
| RRIRSRPPRLPRPRPRPRNFPRP | 0.146 |
| RRIRRRPPRLPRPRPRPEYVPRP | 0.0703 |
| RRIRGRPPRLPRPRPRPKKEPRP | 0.042 |
| RRIRKRPPRLPRPRPRPNNPPRP | -0.00604 |
| RRIRRRPPRLPRPRPRPTVMPRP | 0.286 |
| RRIRCRPPRLPRPRPRPLLNPRP | -0.39 |
| RRIRARPPRLPRPRPRPITFPRP | 0.051 |
| RRIRGRPPRLPRPRPRPWDCPRP | -0.0637 |
| RRIRERPPRLPRPRPRPGLHPRP | -0.124 |
| RRIRHRPPRLPRPRPRPRFCPRP | 0.0432 |
| RRIRMRPPRLPRPRPRPRCKPRP | 0.198 |
| RRIRRRPPRLPRPRPRPPCAPRP | 0.667 |
| RRIRVRPPRLPRPRPRPWYDPRP | -0.00243 |
| RRIRCRPPRLPRPRPRPWQYPRP | 0.0686 |
| RRIRFRPPRLPRPRPRPEIGPRP | -0.0537 |
| RRIRARPPRLPRPRPRPCVKPRP | 0.069 |
| RRIRARPPRLPRPRPRPYLVPRP | 0.0333 |
| RRIRFRPPRLPRPRPRPCENPRP | 0.015 |
| RRIRERPPRLPRPRPRPIHNPRP | -0.659 |
| RRIRSRPPRLPRPRPRPTVTPRP | 0.166 |
| RRIRGRPPRLPRPRPRPHFDPRP | 0.469 |

| Sequence | shrunken log2 fold change |
| --- | --- |
| RRIRWRPPRLPRPRPRPSDEPRP | -0.117 |
| RRIRQRPPRLPRPRPRPLEAPRP | 0.225 |
| RRIRSRPPRLPRPRPRPETGPRP | 0.105 |
| RRIRSRPPRLPRPRPRPAKMPRP | -0.0464 |
| RRIRARPPRLPRPRPRPELIPRP | 0.606 |
| RRIRNRPPRLPRPRPRPNCCPRP | -0.124 |
| RRIRLRPPRLPRPRPRPPYEPRP | -0.468 |
| RRIRNRPPRLPRPRPRPFLDPRP | -0.358 |
| RRIRTRPPRLPRPRPRPTEEPRP | 0.12 |
| RRIRARPPRLPRPRPRPWGLPRP | 0.617 |
| RRIRPRPPRLPRPRPRPTFWPRP | 0.333 |
| RRIRCRPPRLPRPRPRPHNGPRP | -1.03 |
| RRIRVRPPRLPRPRPRPHVSPRP | 0.108 |
| RRIRRRPPRLPRPRPRPVTRPRP | 0.169 |
| RRIRRRPPRLPRPRPRPEPPPRP | 1.02 |
| RRIRLRPPRLPRPRPRPESIPRP | 0.0419 |
| RRIRQRPPRLPRPRPRPLTFPRP | -0.0576 |
| RRIRNRPPRLPRPRPRPKKAPRP | -0.0485 |
| RRIRRRPPRLPRPRPRPGKLPRP | 0.0788 |
| RRIRKRPPRLPRPRPRPGSWPRP | 0.571 |
| RRIRDRPPRLPRPRPRPQAGPRP | 0.152 |
| RRIRPRPPRLPRPRPRPFNCPRP | -0.537 |
| RRIRGRPPRLPRPRPRPQAEPRP | 1.08 |
| RRIRDRPPRLPRPRPRPDNYPRP | -0.117 |
| RRIRSRPPRLPRPRPRPCTSPRP | -0.0192 |

| Sequence | shrunken log2 fold change |
| --- | --- |
| RRIRDRPPRLPRPRPRPYRFPRP | -0.0178 |
| RRIRTRPPRLPRPRPRPENKPRP | -0.178 |
| RRIRNRPPRLPRPRPRPPRTPRP | 0.59 |
| RRIRCRPPRLPRPRPRPARIPRP | 0.0785 |
| RRIRWRPPRLPRPRPRPDQWPRP | 0.399 |
| RRIRIRPPRLPRPRPRPMQLPRP | 3.42 |
| RRIRSRPPRLPRPRPRPHKEPRP | -0.00927 |
| RRIRSRPPRLPRPRPRPWPAPRP | 0.199 |
| RRIRVRPPRLPRPRPRPTYWPRP | 0.0478 |
| RRIRLRPPRLPRPRPRPIAGPRP | -0.086 |
| RRIRMRPPRLPRPRPRPDLNPRP | 0.178 |
| RRIRHRPPRLPRPRPRPNQEPRP | -0.00942 |
| RRIRKRPPRLPRPRPRPEGFPRP | 0.802 |
| RRIRCRPPRLPRPRPRPNHGPRP | -0.746 |
| RRIRCRPPRLPRPRPRPGVAPRP | 0.632 |
| RRIRHRPPRLPRPRPRPQTPPRP | 0.374 |
| RRIRMRPPRLPRPRPRPYLDPRP | 0.107 |
| RRIRPRPPRLPRPRPRPERGPRP | 0.575 |
| RRIRRRPPRLPRPRPRPDDFPRP | 0.252 |
| RRIRCRPPRLPRPRPRPEVTPRP | -0.0149 |
| RRIRLRPPRLPRPRPRPLSFPRP | -0.15 |
| RRIRKRPPRLPRPRPRPMSEPRP | 0.148 |
| RRIRHRPPRLPRPRPRPPVDPRP | 1.89 |
| RRIRHRPPRLPRPRPRPTIIPRP | -0.494 |
| RRIRWRPPRLPRPRPRPPMEPRP | -0.131 |

| Sequence | shrunken log2 fold change |
| --- | --- |
| RRIRIRPPRLPRPRPRPPYNPRP | -0.854 |
| RRIRRRPPRLPRPRPRPRQGPRP | 0.298 |
| RRIRFRPPRLPRPRPRPGDHPRP | 0.0283 |
| RRIRPRPPRLPRPRPRPNTQPRP | -0.159 |
| RRIRGRPPRLPRPRPRPHWRPRP | 0.203 |
| RRIRSRPPRLPRPRPRPPTAPRP | 0.447 |
| RRIRFRPPRLPRPRPRPTPSPRP | 0.636 |
| RRIRNRPPRLPRPRPRPWVMPRP | -0.00783 |
| RRIRIRPPRLPRPRPRPHIGPRP | -0.17 |
| RRIRDRPPRLPRPRPRPQPTPRP | 0.0584 |
| RRIRFRPPRLPRPRPRPFDNPRP | -0.31 |
| RRIRHRPPRLPRPRPRPQWKPRP | -0.0774 |
| RRIRGRPPRLPRPRPRPILRPRP | 0.161 |
| RRIRCRPPRLPRPRPRPENDPRP | -0.0268 |
| RRIRFRPPRLPRPRPRPCLTPRP | -0.134 |
| RRIRNRPPRLPRPRPRPLSGPRP | 0.0992 |
| RRIRIRPPRLPRPRPRPCNEPRP | -0.0608 |
| RRIRRRPPRLPRPRPRPVKGPRP | -0.0795 |
| RRIRFRPPRLPRPRPRPLVDPRP | 0.0316 |
| RRIRCRPPRLPRPRPRPTNFPRP | -0.124 |
| RRIRWRPPRLPRPRPRPYHAPRP | -0.295 |
| RRIRQRPPRLPRPRPRPYWDPRP | -0.192 |
| RRIRLRPPRLPRPRPRPKMDPRP | -0.428 |
| RRIRRRPPRLPRPRPRPCHRPRP | -0.0875 |
| RRIRDRPPRLPRPRPRPISLPRP | -0.0081 |

| Sequence | shrunken log2 fold change |
| --- | --- |
| RRIRSRPPRLPRPRPRPEVMPRP | 0.104 |
| RRIRDRPPRLPRPRPRPKLCPRP | -0.0785 |
| RRIRPRPPRLPRPRPRPLVLPRP | 0.0114 |
| RRIRKRPPRLPRPRPRPLVQPRP | 0.459 |
| RRIRGRPPRLPRPRPRPYWGPRP | 0.198 |
| RRIRDRPPRLPRPRPRPRTCPRP | -0.0386 |
| RRIRDRPPRLPRPRPRPGMFPRP | 0.00675 |
| RRIRDRPPRLPRPRPRPHHEPRP | 0.0131 |
| RRIRSRPPRLPRPRPRPLREPRP | 0.369 |
| RRIRMRPPRLPRPRPRPQKDPRP | 0.0308 |
| RRIRCRPPRLPRPRPRPKRDPRP | 5.21 |
| RRIRVRPPRLPRPRPRPPMIPRP | -0.523 |
| RRIRPRPPRLPRPRPRPTFAPRP | 0.409 |
| RRIRGRPPRLPRPRPRPNEVPRP | 0.0747 |
| RRIRFRPPRLPRPRPRPPAGPRP | 0.727 |
| RRIRLRPPRLPRPRPRPKTPPRP | 0.526 |
| RRIRARPPRLPRPRPRPHYYPRP | -0.146 |
| RRIRHRPPRLPRPRPRPWCWPRP | 0.0593 |
| RRIRMRPPRLPRPRPRPEQRPRP | 2.55 |
| RRIRARPPRLPRPRPRPSMWPRP | 0.45 |
| RRIRVRPPRLPRPRPRPITNPRP | -0.219 |
| RRIRARPPRLPRPRPRPEFQPRP | 0.666 |
| RRIRHRPPRLPRPRPRPGHKPRP | 0.0956 |
| RRIRNRPPRLPRPRPRPPHDPRP | 0.114 |
| RRIRWRPPRLPRPRPRPKHEPRP | 0.288 |
